These results are taken from US20260104418A1 (published 2026).

Experiment [1] concerns the target T1, human Claudin-18.2 (CLDN18.2) (human).
T1 construct: On cells: endogenous on HUPT4 and SNU601; also called human CLDN18.2
Nature of the experiment: FACS, 1.5 ug antibody, HEK293T-CLDN18.2 C12 clone.
Protocol: (§1) FAGS assays were carried out to determine relative antigen binding strengths of the humanized antibodies (at either 1.5 ag or 0.3 rag) for binding to CLDN18.2 as expressed by the indicated cancer cell lines.

Experiment [2] addresses T1, human Claudin-18.2 (CLDN18.2). As to the kind of experiment: FACS titration of AF647-labelled IgG on HEK293T cells overexpressing human CLDN18.2 (clone C12).
Description: (§2) CLDN18.2-expressing cells were used in FACS assays to determine the CLDN18.2 antibody's ability to bind to CLDN18.2 on the surface of cells and to cross-react with other CLDN family members. HEK293 T cells engineered to express human CLDN18.2 fused to GFP, mouse CLDN18.2 fused to GFP, CLDN18.1-GFP, or GFP alone (without CLDN18.2) were used as artificial models of CLDN18.2 expression. HUPT4, SNU601, and PATU8988S cells were used as endogenous models of CLDN18.2 expression.
(§3) For each type of cell tested and for each mAb, cells were detached from the surface of the culture flasks by versene (instead of trypsin) in order to protect the cell surface proteins. The detached cells were then incubated with Alexa Fluor®-labeled CLDN18.2 mAbs for 30 min in the dark on ice at a pre-determined concentration. […] After washing, the cells were read by a BD Accuri™ Flow Cytometer C6 to detect antibody-antigen protein binding in channel FL4H. Each antibody was tested at varied concentrations to establish a dose-fluorescence curve.
For experiment [3] the target is unchanged. As to the kind of experiment: FACS, 1.5 ug antibody, HUPT4 cells (endogenous CLDN18.2). Background: Flow cytometry measures light scatter and fluorescence of single cells or particles in a stream.
Protocol: as §1
The target is the same in experiment [4]. As to the kind of experiment: FACS titration of AF647-labelled IgG on SNU601 cells (endogenous CLDN18.2).
Description: as §2, §3
Experiment [5] has the same target. Nature of the experiment: FACS titration of AF647-labelled IgG on HUPT4 cells (endogenous CLDN18.2).
Description: as §2, §3

B1: Reference antibody 1 (Benchmark 1-175D10) (antibody, V domains shown)
VH: QVQLQQPGAELVRPGASVKLSCKASGYTFTSYWINWVKQRPGQGLEWIGNIYPSDSYTNYNQKFKDKATLTVDKSSSTAYMQLSSPTSEDSAVYYCTRSWRGNSFDYWGQGTTLTVSS
VL: DIVMTQSPSSLTVTAGEKVTMSCKSSQSLLNSGNQKNYLTWYQQKPGQPPKLLIYWASTRESGVPDRFTGSGSGTDFTLTISSVQAEDLAVYYCQNDYSYPFTFGSGTKLEIK
In the case of B1, the results for the “FACS signal (relative antigen binding strength)” value in experiment [1] and in experiment [3] were 80600 and 2450, respectively. In addition, it took 1.09 µM to reach a half-maximal effect in experiment [2] (EC50).

B2: Ab 369 (antibody, V domains shown)
VH: DVKLVESGGGLVKPGGSLKLSCAASGFTFTSYTMSWVRQTPEKRLEWVATIIIGGSYTYYPDSVKGRFTISRDNAKNTLYLQMSSLKSEDTAMYYCTRLVKGNAMDYWGQGTSVTVSS
VL: DILMTQSPSSLTVTAGEKVTMTCKSSQSLLNSGNQKNYLTWYQQKPGQPPKLLIYWASSRESGVPDRFTGSGSGTDFTLTISSVQAEDLAVYYCQNDYSYPFTFGAGTKLELK
notes: Full-length IgG from ExpiCHO
Regarding B2, the 50% effective concentration (EC50) – broadly, the concentration needed to bring the measured effect to its halfway point – in experiment [4] was 0.276 µM; in experiment [5], 0.265 µM; in experiment [2], 0.04 µM.

B3: Ab 360 (antibody, V domains shown)
VH: VVQLQQSGPELVKPGASVKMSCKASGYTFTSYLMHWVRQKPGLGLDWIGYINPYNDGTNYNAKFIDKATLTSDKTSSTAYMELSSLTSEDSAIYYCTRGDYWGQGTSVTVSS
VL: DIVMTQSPSSLAVTAGEQVTMSCKSSQSLLNSGNQKNYLTWYQQKPGQPPKLLIYWASIRQSGVPDRFTGSGSGTDFTLTISSVQAEDLAVYYCLNDYGFPLTFGAGTKLELK
notes: Full-length IgG from ExpiCHO; also called 360-Chim
B3: the EC50 in experiment [4] was 0.119 µM; in experiment [5] it was 0.693 µM; in experiment [2], 0.0397 µM.

B4: Ab 432 (antibody, V domains shown)
VH: QIQLQQSGAELARPRASVKLSCKASGYTFTSDVISWVKQRPGQGLEWIGESYLRNGNTYYNENFKGKATLTADKSSSTAYMELRSLTSEDSAVYFCARSYYGNSFAYWGQGTLVTVSA
VL: DIVMTQSPSSLTVTAREKVTMNCKSTQSLLNSGNQKNYLTWYQQKPGQPPKLLIYWASTRESGVPDRFTGSGSGTDFTLTISSVQAEDLAVYYCQNAYYYPFTFGGGTKLEIK
notes: Full-length IgG from ExpiCHO; also called 432-Chim
Turning to B4, the figures for the EC50 in experiment [4], in experiment [5] and in experiment [2] were 0.245 µM, 0.348 µM and 0.0423 µM, respectively.

B5: Ab 331 (antibody, V domains shown)
VH: EVQLQQSGPELVKPGASVRMSCKASGYTFTSYIMHWVKQKPGQGPEWMGYINPYNDGTNYNEKFKDKATLTSDKSSSTAYMDLSSLTSEDSAVYYCTRGDYWGQGTSVTVSS
VL: DIVMTQSPSSLTVTAGEKVTMSCKSSQSLLNSGNQKNYLTWYQQKPGQPPKLLFYWASTKKSGVPDRFTGSGSRTDFTLTISSVQAEDLAVYYCLNDYSFPLTFGAGTKLELK
notes: Full-length IgG from ExpiCHO
Consider B5, for which the EC50 in experiment [4] is 0.106 µM; in experiment [5], 0.606 µM; in experiment [2] it was 0.0231 µM.

B6: Reference antibody 2 (Benchmark 2-163E12) (antibody, V domains shown)
VH: QVQLQQSGAELARPGASVKLSCKASGYTFTDYYINWVKQRTGQGLEWIGEIYPGSGNTYYNEKFKGKATLTADKSSSTAYMQLSSLTSEDSAVYFCARSYGAFDYWGQGTTLTVSS
VL: DIVMTQSPSSLTVTAGEKVTMSCKSSQSLLNSGNQKNYLTWYQQKPGQPPKLLIYWASTRESGVPDRFTGSGSGTDFTLTISSVQAEDLAVYYCQNDYSYPLTFGAGTKLELK
Turning to B6, the “FACS signal (relative antigen binding strength)” value stood at 125000 in experiment [1] and 11100 in experiment [3]. In experiment [2], this molecule gave a 50% effective concentration (EC50) of 1.74 µM.

B7: Ab 400 (antibody, V domains shown)
VH: QVQLKESGPGLVAPSQSLSITCTVSGFSLNSYGVSWVRQPPGKGLEWLGVIWGDGSTNYHSALKSRLNINKDKSKSQVFLKLNSLQTDDTATYYCARPTRGNAMDYWGQGTSVTVSS
VL: DVVMTQSPSSLTVTAGEKVTMNCKSSQSLLNSGNQRSYLTWYQQKPGQPPKLLIYWASTRESGAPDRFTGSGSGADFTLTISSVQAEDLAIYYCQNNYNYPFTFGSGTKLEIK
notes: Full-length IgG from ExpiCHO
For B7, the EC50 in experiment [4] worked out at 0.27 µM; in experiment [5], 0.0978 µM; in experiment [2], 0.0312 µM.

B8: Ab 347 (antibody, V domains shown)
VH: EVQLQQSGPELVKPGASVKMSCKASGYTFTSYLIHWVKQKPGQGLEWIGYINPYNDATYYNEKFKAKATLTSDKSSSTAYMELSSLTSEDTAIYYCTRGDYWSQGTSVTVSS
VL: DIVMTQSPSSLTVTAGEKVTMSCKSSQSLLNSGNQKNYLTWYQQKPGQPPKLLIYWASTRQSGVPDRFTGSGSGTDFTLTISSVQAEDLTVYYCLNDYSFPLTFGAGTKLELK
notes: Full-length IgG from ExpiCHO
As to B8, the 50% effective concentration (EC50) in experiment [4] was 0.276 µM; in experiment [5], 0.294 µM; in experiment [2], 0.0704 µM.

B9: Ab 384 (antibody, V domains shown)
VH: QVQLQQSGAELARPGASVKLSCKASDYTFTSYVISWVKQRTGQGLEWIGEIYPRNGNTYYNEKFKGKATLTADKSSSTAYMELRSLTSEDSAVYFCARSYYGNSFAYWGQGTLVTVSA
VL: DIVMTQSPSSLTVTAGEKVTMSCKSSQSLLNSGNQKNYLTWYQQRPGQPPKLLIYWASTRESGVPDRFTGSGSGTDFTLTISSVQAEDLAVYCCQNNYYYPFTFGGGTKLGIK
notes: Full-length IgG from ExpiCHO
Turning to B9, in experiment [2], the EC50 was 0.595 µM.

B10: Ab 392 (antibody, V domains shown)
VH: EVQLQQSGPELVKPGASVKMSCKASGFTFTSYVMHWVKQKSGQGLEWIGYINPYNDDIKYNAKFEDKATLTSDRSSSTAYMELSSLTSDDSAVYFCTRGDYWGQGTTLTVSS
VL: DIVMTQSPSSLTVTTGEKVTMDCKSSQSLLNSGNQKNYLTWYQQKSGQPPKLLIYWASIRKSGVPDRFTGSGSGTDFTLTISSVQAEDLAVYYCLNDYSFPLTFGAGTKLELK
notes: Full-length IgG from ExpiCHO
For B10, the EC50 in experiment [2] amounted to 0.446 µM.

B11: Ab 358 (antibody, V domains shown)
VH: VVQLVESGGDFVQPGGSRKLSCAVSGFTFSSFGMHWVRQAPEKGLEWVAYISSGTTNIYYADTVKGRFTVSRDNPKNSLFLHMTSLRSEDTAMYYCVRSGYYGNSLDYWGQGTPLTVSS
VL: DIVMTQSPSSLTVTAGEKVTMSCKSSQSLFNSGNQRNYLTWYQQKPGQPPKLLIYWASTRESGVPDRFTGSGSGTGFTLTISSVQAEDLAFYYCQNVYIYPLTFGLGTKLELR
notes: Full-length IgG from ExpiCHO
Consider B11, for which the EC50 came out at 0.414 µM in experiment [4], 0.111 µM in experiment [5] and 0.0545 µM in experiment [2].

B12: Ab 376 (antibody, V domains shown)
VH: DVKLVESGGGLVKPGGSLKLSCAASGFTFSSYTMSWVRQTPEKRLYWVATISSGVSYTYYPDSVKGRFTISRDNAKNTLYLQMSSLKSEDTAMYYCTRLTKGNAMDYWGQGTSVTVSS
VL: DIVMTQSPSSLTVTAGEKVTMSCKSSQSLLNSGNQKNYLTWYQQKPGQPPKLLIYWASTRESGVPDRFTGSGSGTGFTLTISSVQAEDLAVYYCQNDYSYPFTFGAGTKLELK
notes: Full-length IgG from ExpiCHO
In the case of B12, the “FACS signal (relative antigen binding strength)” value in experiment [1] was 137000; in experiment [3], 31300. The molecule further returned an EC50 in experiment [2] of 0.0521 µM.

B13: Ab 307 (antibody, V domains shown)
VH: DVKLVESGGGLVKPGGSLKLSCAASGFTFSSYTMSWVRQTPEKRLEWVATIIIGGSYTYYPDSVKGRFTISRDNAKNTLYLQMSSLKSEDTAMYYCTRLVKGNAMDYWGQGTSVAVSS
VL: DIVMTQSPSSLTVTTGEKVTMSCKSSQSLLNSGNQKNYLSWYQQIPGQPPKLLFYWASTRESGVPDRFTGSGSGTDFTLTISNVQAEDLAVYYCQNDYSYPFTFGAGTKLELR
notes: Full-length IgG from ExpiCHO
B13: the EC50 in experiment [4] amounted to 0.221 µM; in experiment [5], 0.336 µM; in experiment [2], 0.0391 µM.

B14: Ab 301 (antibody, V domains shown)
VH: VVQLQQSGPELVKPGASVKMSCKASGYTFTSFLIHWVRQKPGLGLEWIGYINPYDYGINYNVKFMDKVTLTSDKTSSTAYMELSSLTSADSAIYYCTRGDYWGQGTSVIVSS
VL: DIVMTQSPSSLAVTTGEQVTMNCKSSQSLLNSGNQKNYLTWYQQKTGQSPKLLIYWASTRQSGVPDRFTGSGSGTDFTLTISSVQAEDLAVYYCLNDYGFPLTFGAGTKLELK
notes: Full-length IgG from ExpiCHO
On to B14, for which the EC50 in experiment [4] worked out at 0.256 µM; in experiment [5], 0.143 µM; in experiment [2] it was 0.0221 µM.

B15: Ab 416 (antibody, V domains shown)
VH: EFQLQQSGPELVKPGASVKISCKASVYSFTGYNMNWVKQSNGKSLEWIGVINPNYGNTNYNQRFKGKATLTVDQSSSTAYMQLNSLTSEDSAVYYCARSEDYYNIRGASWGQGTLVTVSA
VL: QIVLTQSPAIMSASPGQKVTITCSASSTINYMHWYQQKLGSSPKLWIYDTSKLAPGVPARFSGSGSGTSYSLTISSMEAEDAASYFCHQWSSYPPTFGSGTKLELK
notes: Full-length IgG from ExpiCHO
B15: the EC50 in experiment [2] came out at 0.597 µM.

B16: Ab 409 (antibody, V domains shown)
VH: QVQLQQSGAELARPGASVKLSCKASGYTFTSYGISWVKQRTGQGLEWIGEISPRSGNTYYNEKFKGKATLTADKSSSTAYMELRSLTSEDSAVYFCATGVITTVIPTDWYFDVWGTGTTVTVSS
VL: DIQMTQTTSSLSASLGDRVTISCRASQDISNYLNWYQQKPDGTVKLLIYYTSRLHSGVPSRFSGSGSGTDYSLTISNLEPEDIATYYCQHYSKLPPTFGSGTKLEIK
notes: Full-length IgG from ExpiCHO; 38 is used
Regarding B16, in experiment [2], the EC50 worked out at 0.605 µM.
